Series [1] concerns the target chicken VE-cadherin EC1-2, wild type (chicken). Briefly: AUC.
Series [2] deals with human VE-cadherin EC1-2, wild type (human). Briefly: AUC.
Series [3] concerns the target human VE-cadherin EC1-5 ectodomain, wild type, glycosylated (human). Put plainly: AUC.
Series [4] addresses human VE-cadherin EC3-4, wild type, bacterially produced (human). Put plainly: SEC. In general terms: Size exclusion chromatography separates by hydrodynamic size, large species first.
Series [5] has the same target. Put plainly: AUC.
The target in series [6] is mouse VE-cadherin EC1-2, wild type (mouse). Put plainly: AUC.
The target in series [7] is mouse cadherin-9 EC1-2, wild type (mouse). Briefly: AUC.
Series [8] deals with mouse cadherin-10 EC1-2, wild type (mouse). Briefly: AUC.
The series “AUC” deals with the molecule itself. Put plainly: AUC.

As for “chicken VE-cadherin EC1-2, wild type (domain or fragment)”, the Kd – broadly, a measure of binding affinity in units of concentration – in [1] stood at 1.63 µM.
“human VE-cadherin EC1-2, wild type (domain or fragment)” yielded a Kd in [2] of 4.38 µM.
In turn, “human VE-cadherin EC1-5 ectodomain, wild type, glycosylated (domain or fragment)” showed a Kd in series [3] of 1.03 µM.
As for “human VE-cadherin EC3-4, wild type, bacterially produced (domain or fragment)”, the stoichiometry N (commonly the number of molecules, sites or subunits per partner or assembly) in [4] stood at 2. In addition, the Kd in [5] amounted to 1.93 µM.
“mouse VE-cadherin EC1-2, wild type (domain or fragment)”: the Kd in [6] stood at 2.22 µM. In other words, the single-digit micromolar range.
With “mouse cadherin-9 EC1-2, wild type (domain or fragment)”, in series [7], the Kd worked out at 17 µM. That is a double-digit micromolar value.
As to “mouse cadherin-10 EC1-2, wild type (domain or fragment)”, the Kd in [8] was determined as 42.2 µM.

B1: chicken cadherin-6b EC1-2, wild type (domain or fragment)
chain: SWMWNQFFLLEEYTGTDYQYVGKLHSDQDKGDGSLKYILSGDGAGDLFIINENTGDIQATKRLDREEKPVYILRAQAINRRTGRPVEPESEFIIKIHDINDNEPMFTKDVYNASIPEMSDVGTFVVQVTATDADDPTYGNSAKVVYSILQGQPYFSVESETGIIKTALLNMDRENREQYQVVIQAKDMGGQMGGLSGTTTVNITLTDVNDNPPRF
B1: in the series “AUC”, the Kd stood at 9.2 ± 0.6 µM.

B2: mouse cadherin-8 EC1-3, wild type (domain or fragment)
chain: GWVWNQMFVLEEFSGPEPILVGRLHTDLDPGSKKIKYILSGDGAGTIFQINDITGDIHAIKRLDREEKAEYTLTAQAVDFETNKPLEPPSEFIIKVQDINDNAPEFLNGPYHATVPEMSILGTSVTNVTATDADDPVYGNSAKLVYSILEGQPYFSIEPETAIIKTALPNMDREAKEEYLVVIQAKDMGGHSGGLSGTTTLTVTLTDVNDNPPKFAQSLYHFSVPEDVVLGTAIGRVKANDQDIGENAQSSYDIIDGDGTALFEITSDAQAQDGVIRLRKPLDFETKKSYTLKVEAANIHIDPRFSSRGPFKDTATVKIVVEDADEPPVF
In “AUC”, B2 came in with a Kd of 15 ± 0.4 µM. This Kd lies about 1.6-fold higher than the previous one.

B3: chicken VE-cadherin EC1-5 ectodomain, wild type, glycosylated (domain or fragment)
chain: DWIWNRMHIREEIDSPLPHHVGKLTSSVGNKNAMYIIEGESANTIFKVQGYDGDIYAFERLDREKKAEYELTAHIIDRRNNRSLEPPSKFIIKVSDINDNAPIFVQKIFNGSVPEMSRLGTSVTKVTAEDADDPTVAGHATVTYQIIKGNEYFTVDDSGVIFTARADLDRESQSAYEIIVKAKDALGLTGESSTATVIIRLTDINDNFPVFKHPSFHFRVPENISVGGEVGRVKVEDIDEPQHRNTKYSFVRGDYRDTFEIIANPFTNEGIIRPKKPLDFEKVAEYRFDIEATDHNVNPAYYKPGGSRSISTITIEVTDVDEPPVFTKLSYEFKVRENDPEIKTLGSVWAHDPDAAKRKIRFARRRASPNGDYVRVSDSGIIQLPKPLDREFSSLYNITVAAQEILEDGRLSDRESHAQVHVIVTDENDNAPELVYPEEPRVCENAAPGKVIIRISATDKDEISPGGFFTYSLTTEDSNFSLTENPDNTANITVKDGQFNRELAKIHYLPVIISDNGNPELSSTNTLVISVCKCNEKGDFTFCEE
modifications: glycosylated (N-linked and O-linked sugar)
For B3, the Kd in “AUC” turned out to be 1.14 ± 0.04 µM.

B4: mouse cadherin-11 EC1-2, wild type (domain or fragment)
chain: GWVWNQFFVIEEYTGPDPVLVGRLHSDIDSGDGNIKYILSGEGAGTIFVIDDKSGNIHATKTLDREERAQYTLMAQAVDRDTNRPLEPPSEFIVKVQDINDNPPEFLHEIYHANVPERSNVGTSVIQVTASDADDPTYGNSAKLVYSILEGQPYFSVEAQTGIIRTALPNMDREAKEEYHVVIQAKDMGGHMGGLSGTTKVTITLTD
Turning to B4, the Kd in the series “AUC” amounted to 33.8 ± 0.2 µM.

Values taken from article PMC3084036 (Journal of molecular biology, 2011).
